Measurements: article PMC4739419, “Mutations in the nucleotide binding and hydrolysis domains of Helicobacter pylori MutS2 lead to altered biochemical activities and inactivation of its in vivo function” (BMC Microbiology, 2016)

Molecular target: the molecule itself
Experiment: SEC; Superose-6 HR 10/30, buffer B (50 mM Tris pH 8.0, 100 mM NaCl), 0.3 ml/min, approximately 150 ug protein injected; mass from a plot of Ve/Vo versus log of molecular mass of standards

B1: HpMutS2-E413A (enzyme)
chain: MSDAPKRSLNPTLMMNNNNTPPKPLEESLDLKEFIALFKTFFAKERDTIALENDLKQTFTYLNEVDAIGLPTPKSVKESDLIIIKLTKLGTLHLDEIFEIVKRLHYIVVLQNAFKTFTHLKFHERLNAIVLPPFFNDLIALFDDEGKIKQGANATLDALNESLNRLKKESVKIIHHYARSKELAPYLVDTQSHLKHGYECLLLKSGFSGAIKGVVLERSANGYFYLLPESAQKIAQKIAQIGNEIDCCIVEMCQTLSHSLQKHLLFLKFLFKEFDFLDSLQARLNFAKAYNLEFVMPSFTQKKMILENFSHPILKEPKPLNLKFEKSMLAVTGVNAGGKTMLLKSLLSAAFLSKHLIPMKINAHHSIIPYFKEIHAIINDPQNSANNISTFAGRMKQFSALLSKENMLLGVDAIELGTDADEASSLYKTLLEKLLKQNNQIIITTHHKRLSVLMAENKEVELLAALYDEEKERPTYTFLKGVIGKSYAFETALRYGVPHFLIEKAKTFYGEDKEKLNVLIENSSALERELKQKNEHLENALKEQEYLKNAWLLEMEKQKEIFHNKKLELEKSYQQALNILKSEVASKDTSSMHKEIHKASEILSKHKTNQEIPQIITNFQANEKARYKNESVLIVQILDKGYYWIETELGMRLKAHGSLLKKIQKPPKNKFKPPKTTIPKPKEASLRLDLRGQRSEEALDLLDAFLNDALLGGFEEVLICHGKGSGILEKFVKEFLKNHPKVVSFSDAPINLGGSGVKIVKL
notes: also called Walker-B mutant
binding result: binds
